Experimental data taken from IntAct's records for PubMed 24561201.

B1: ATP-sensitive inward rectifier potassium channel 10 (Homo sapiens), P78508 (parent)
chain: MTSVAKVYYSQTTQTESRPLMGPGIRRRRVLTKDGRSNVRMEHIADKRFLYLKDLWTTFIDMQWRYKLLLFSATFAGTWFLFGVVWYLVAVAHGDLLELDPPANHTPCVVQVHTLTGAFLFSLESQTTIGYGFRYISEECPLAIVLLIAQLVLTTILEIFITGTFLAKIARPKKRAETIRFSQHAVVASHNGKPCLMIRVANMRKSLLIGCQVTGKLLQTHQTKEGENIRLNQVNVTFQVDTASDSPFLILPLTFYHVVDETSPLKDLPLRSGEGDFELVLILSGTVESTSATCQVRTSYLPEEILWGYEFTPAISLSASGKYIADFSLFDQVVKVASPSGLRDSTVRYGDPEKLKLEESLREQAEKEGSALSVRISNV

Variants of: B1
Settings: with MAGI1, A0A8I3NPD4
Sequence of MAGI1, A0A8I3NPD4 (A0A8I3NPD4 entry or part of it): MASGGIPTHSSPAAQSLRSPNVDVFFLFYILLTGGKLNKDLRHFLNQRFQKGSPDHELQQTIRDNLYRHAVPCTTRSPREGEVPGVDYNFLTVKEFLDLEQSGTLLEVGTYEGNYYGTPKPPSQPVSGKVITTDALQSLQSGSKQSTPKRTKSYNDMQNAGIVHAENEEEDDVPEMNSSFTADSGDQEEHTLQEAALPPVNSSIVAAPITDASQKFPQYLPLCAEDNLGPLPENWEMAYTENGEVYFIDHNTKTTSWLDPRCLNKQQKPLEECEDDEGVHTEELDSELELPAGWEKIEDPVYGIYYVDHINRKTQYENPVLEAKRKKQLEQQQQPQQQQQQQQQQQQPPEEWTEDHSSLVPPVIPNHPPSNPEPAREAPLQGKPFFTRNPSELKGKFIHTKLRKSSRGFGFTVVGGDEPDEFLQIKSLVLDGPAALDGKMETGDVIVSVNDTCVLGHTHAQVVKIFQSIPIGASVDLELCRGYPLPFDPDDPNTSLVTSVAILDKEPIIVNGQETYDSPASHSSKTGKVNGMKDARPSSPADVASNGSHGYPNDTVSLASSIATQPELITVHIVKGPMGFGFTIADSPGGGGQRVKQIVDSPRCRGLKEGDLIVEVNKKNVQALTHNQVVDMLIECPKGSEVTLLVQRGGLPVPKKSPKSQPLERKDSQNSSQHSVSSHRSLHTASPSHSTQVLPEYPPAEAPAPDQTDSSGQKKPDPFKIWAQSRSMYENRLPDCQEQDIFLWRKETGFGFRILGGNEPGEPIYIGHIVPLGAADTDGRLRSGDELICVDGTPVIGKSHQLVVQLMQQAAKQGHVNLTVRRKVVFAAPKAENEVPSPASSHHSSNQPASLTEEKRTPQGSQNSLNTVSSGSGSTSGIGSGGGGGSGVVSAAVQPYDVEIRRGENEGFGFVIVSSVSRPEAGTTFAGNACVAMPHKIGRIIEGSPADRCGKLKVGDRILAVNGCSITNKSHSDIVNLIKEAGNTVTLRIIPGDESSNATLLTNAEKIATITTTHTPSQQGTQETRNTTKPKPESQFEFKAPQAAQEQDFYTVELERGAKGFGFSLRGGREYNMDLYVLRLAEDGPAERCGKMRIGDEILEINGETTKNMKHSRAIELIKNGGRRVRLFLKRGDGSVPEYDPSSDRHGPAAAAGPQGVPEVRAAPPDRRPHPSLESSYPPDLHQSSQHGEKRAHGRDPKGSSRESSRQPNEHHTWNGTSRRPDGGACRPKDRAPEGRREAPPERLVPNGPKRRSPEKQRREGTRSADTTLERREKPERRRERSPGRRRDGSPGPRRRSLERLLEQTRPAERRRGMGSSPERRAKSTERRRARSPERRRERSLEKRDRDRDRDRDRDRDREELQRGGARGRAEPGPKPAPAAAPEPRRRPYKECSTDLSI

Row | effect of a mutation on the interaction | Variant
1 | decreasing interaction | A167V
